Consider three substances from article PMC3705364, “Biochemical and Electrophysiological Characterization of Two Sea Anemone Type 1 Potassium Toxins from a Geographically Distant Population of Bunodosoma caissarum” (Marine Drugs, 2013).

Where no end group is shown, it is not given here.

In assay [1] the target is rKV1.6 (rat) (UniProt P17659).
Assay [2] addresses rKV1.2 (rat) (UniProt P63142).
The target of assay [3] is Shaker IR (insect) (UniProt P08510).
Assay [4] has as its target rKV1.1 (rat) (UniProt P10499).
The target in assay [5] is T1, hKV1.3 (Homo sapiens, UniProt P22001).
The target of assay [6] is rKV1.6 (rat) (UniProt P17659). This is another data set of the same source.
In assay [7] the target is rKV1.2 (rat) (UniProt P63142). The source holds these as a separate data set.
For assay [8], the target named is Shaker IR (insect) (UniProt P08510). The source holds these as a separate data set.
In assay [9] the target is rKV1.1 (rat) (UniProt P10499). This is another data set of the same source.
The target of assay [10] is T1, hKV1.3. This is another data set of the same source.
The subject of another assay is KV1.6. As to conditions: cited from earlier work. From the text:
In order to characterize the potency and selectivity profile, concentration-response curves were constructed for BcsTx1. […] A concentration-response curve was also constructed to determine the concentration at which BcsTx2 blocked half of the channels.

Another assay concerns KV3.2 channels. As to conditions: cited from earlier work.
The next assay has as its system KV1.3 channels. The settings on record: cited from earlier work. Here is the method:
(§1) The pharmacological profile of BcsTx-1 and -2 were determined on a wide range of twelve KV channels (rKV1.1, rKV1.2, hKV1.3, rKV1.4, rKV1.5, rKV1.6, rKV2.1, rKV3.1, rKV4.2, rKV4.3, hERG and the insect channel Shaker IR; r: rat and h: human). Channels were expressed in X. laevis oocytes, and their currents were recorded by using two-electrode voltage-clamp technique. BcsTx1 (0.5 µM) inh ...

The next assay has as its system KV1.1-4 and KV1.6. As to conditions: cited from earlier work. The method, then:
as §1

The test system of assay [11] is intermediate conductance K (Ca) channels. As to conditions: cited from earlier work.

T1 sequence (P22001 whole entry): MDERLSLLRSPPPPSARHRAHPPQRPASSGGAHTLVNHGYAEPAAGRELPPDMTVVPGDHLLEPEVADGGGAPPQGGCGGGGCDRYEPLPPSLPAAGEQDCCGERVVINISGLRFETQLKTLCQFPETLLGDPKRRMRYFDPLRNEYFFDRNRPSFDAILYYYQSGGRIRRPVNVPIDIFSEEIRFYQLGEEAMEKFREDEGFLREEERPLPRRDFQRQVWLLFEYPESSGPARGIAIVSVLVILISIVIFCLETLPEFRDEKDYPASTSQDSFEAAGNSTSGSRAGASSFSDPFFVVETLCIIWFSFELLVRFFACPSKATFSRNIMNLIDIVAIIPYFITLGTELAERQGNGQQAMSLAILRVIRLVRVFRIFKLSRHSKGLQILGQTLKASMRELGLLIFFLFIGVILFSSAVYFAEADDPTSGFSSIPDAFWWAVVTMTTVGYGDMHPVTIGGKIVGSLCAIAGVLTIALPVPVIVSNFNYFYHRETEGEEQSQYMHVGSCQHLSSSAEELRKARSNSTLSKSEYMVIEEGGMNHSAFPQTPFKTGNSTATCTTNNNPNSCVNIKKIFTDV
Chain of Shaker IR (insect) (P08510 whole entry): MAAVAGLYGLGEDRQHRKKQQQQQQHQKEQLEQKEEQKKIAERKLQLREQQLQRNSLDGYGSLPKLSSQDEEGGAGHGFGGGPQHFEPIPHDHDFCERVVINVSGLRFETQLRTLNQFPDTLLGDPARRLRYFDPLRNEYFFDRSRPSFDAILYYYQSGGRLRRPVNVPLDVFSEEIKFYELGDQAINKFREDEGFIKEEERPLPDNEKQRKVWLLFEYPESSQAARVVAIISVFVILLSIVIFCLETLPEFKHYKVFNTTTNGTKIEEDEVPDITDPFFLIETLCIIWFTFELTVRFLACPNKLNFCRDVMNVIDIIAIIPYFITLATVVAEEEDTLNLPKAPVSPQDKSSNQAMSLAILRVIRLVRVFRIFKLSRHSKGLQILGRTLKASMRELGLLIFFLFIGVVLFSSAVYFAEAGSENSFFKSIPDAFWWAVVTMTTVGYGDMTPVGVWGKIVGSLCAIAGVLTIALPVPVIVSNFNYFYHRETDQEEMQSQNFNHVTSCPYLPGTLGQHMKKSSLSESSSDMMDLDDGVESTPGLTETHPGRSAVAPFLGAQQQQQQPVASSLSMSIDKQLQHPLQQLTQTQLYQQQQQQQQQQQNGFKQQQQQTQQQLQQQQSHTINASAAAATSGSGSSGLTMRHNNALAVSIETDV
Chain of rKV1.2 (rat) (P63142 whole entry): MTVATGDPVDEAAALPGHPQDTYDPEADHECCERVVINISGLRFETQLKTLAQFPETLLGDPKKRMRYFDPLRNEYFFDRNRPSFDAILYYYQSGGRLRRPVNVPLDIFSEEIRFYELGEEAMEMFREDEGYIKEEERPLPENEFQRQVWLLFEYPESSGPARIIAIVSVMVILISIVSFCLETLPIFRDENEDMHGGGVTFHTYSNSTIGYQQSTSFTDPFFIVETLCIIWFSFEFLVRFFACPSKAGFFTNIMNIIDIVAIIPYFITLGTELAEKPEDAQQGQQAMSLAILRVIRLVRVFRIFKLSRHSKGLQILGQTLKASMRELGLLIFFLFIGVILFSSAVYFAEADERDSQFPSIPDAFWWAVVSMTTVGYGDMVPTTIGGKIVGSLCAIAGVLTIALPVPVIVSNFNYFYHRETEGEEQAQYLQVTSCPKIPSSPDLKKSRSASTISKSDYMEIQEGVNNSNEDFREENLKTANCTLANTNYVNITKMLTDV
Chain of rKV1.1 (rat) (P10499 whole entry): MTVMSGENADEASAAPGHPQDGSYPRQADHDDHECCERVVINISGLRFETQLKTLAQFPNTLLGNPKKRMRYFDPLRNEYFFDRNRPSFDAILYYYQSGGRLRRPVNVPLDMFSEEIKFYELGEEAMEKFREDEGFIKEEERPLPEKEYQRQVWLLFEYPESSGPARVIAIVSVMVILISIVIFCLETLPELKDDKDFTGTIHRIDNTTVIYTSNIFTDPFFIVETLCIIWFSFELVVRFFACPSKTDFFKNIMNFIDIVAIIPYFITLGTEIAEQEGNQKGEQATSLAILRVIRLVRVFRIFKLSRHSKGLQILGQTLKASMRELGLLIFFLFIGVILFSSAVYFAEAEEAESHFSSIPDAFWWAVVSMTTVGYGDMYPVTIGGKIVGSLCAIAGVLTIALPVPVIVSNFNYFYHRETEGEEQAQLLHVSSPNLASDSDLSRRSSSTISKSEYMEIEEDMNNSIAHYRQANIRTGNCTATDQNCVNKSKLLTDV
Chain of rKV1.6 (rat) (P17659 whole entry): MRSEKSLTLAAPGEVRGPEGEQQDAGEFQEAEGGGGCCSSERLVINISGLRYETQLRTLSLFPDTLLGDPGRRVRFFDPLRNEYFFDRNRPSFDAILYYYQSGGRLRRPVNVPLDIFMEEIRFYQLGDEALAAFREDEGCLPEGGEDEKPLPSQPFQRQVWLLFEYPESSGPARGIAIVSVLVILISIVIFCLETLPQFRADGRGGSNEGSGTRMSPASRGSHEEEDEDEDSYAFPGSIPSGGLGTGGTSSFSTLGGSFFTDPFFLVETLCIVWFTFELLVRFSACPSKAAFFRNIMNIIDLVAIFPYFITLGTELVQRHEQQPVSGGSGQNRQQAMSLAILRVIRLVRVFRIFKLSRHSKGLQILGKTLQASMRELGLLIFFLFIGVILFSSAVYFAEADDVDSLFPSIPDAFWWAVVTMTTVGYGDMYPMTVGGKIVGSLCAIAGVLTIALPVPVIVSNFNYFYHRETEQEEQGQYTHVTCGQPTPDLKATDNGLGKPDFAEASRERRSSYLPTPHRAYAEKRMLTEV

Turning to “BcsTx2 (from UniProt C0HJC3 1-37) (peptide)”, the percent inhibition of the channel's current by 3 µM BcsTx2, two-electrode voltage clamp on X. laevis oocytes in the assay with rKV1.6 (rat) [1] came out at 98%; in the assay with rKV1.2 (rat) [2] it was 100%; with Shaker IR (insect) [3], 94%; with rKV1.1 (rat) [4], 96%; with hKV1.3 [5], 100%. For the same substance, the IC50 of block of the channel's K+ current, two-electrode voltage clamp on X. laevis oocytes, concentration-response curve was determined as 7.76 nM with rKV1.6 (rat) [6]; 80.4 nM with rKV1.2 (rat) [7]; 49.1 nM with Shaker IR (insect) [8]; 14.4 nM with rKV1.1 (rat) [9]; 13.1 nM with hKV1.3 [10].

With “MgTX: toxin from Centruroides margaritatus (TIINVKCTSPKQCLPPCKAQFGQSAGAKCMNGKCKCYPH; ends and bridges not checked; cysteine pairing not given here; UniProt P40755 1-39, looked up)”, in the assay with KV1.6, the IC50 was 5 nM and the “binding affinity to KV1.6 (in words)” value is “binds with very high affinity to KV1.6”.

Turning to “ShK: type 1 sea anemone toxin from Stichodactyla helianthus (Swiss-Prot P29187)”, the “activity against KV3.2 (in words)” value in the assay on KV3.2 channels is “shows activity against KV3.2 channels”. In the assay on KV1.3 channels, the “block of KV1.3 (in words)” value is “block KV1.3 channels”. Besides, the “block of KV1.1-4 and KV1.6 (in words)” value in the assay with KV1.1-4 and KV1.6 is “blocks KV1.1-4 and KV1.6”. Also, the “block of intermediate conductance K (Ca) channels (in words)” value in assay [11] is “block intermediate conductance K (Ca) channels”.

By IC50 is commonly meant the concentration that inhibits the measured activity by half.
